T1: purified recombinant hTEM8(ED)-Fc fusion protein (Homo sapiens, UniProt Q9H6X2)
T1 sequence (Q9H6X2 33-321): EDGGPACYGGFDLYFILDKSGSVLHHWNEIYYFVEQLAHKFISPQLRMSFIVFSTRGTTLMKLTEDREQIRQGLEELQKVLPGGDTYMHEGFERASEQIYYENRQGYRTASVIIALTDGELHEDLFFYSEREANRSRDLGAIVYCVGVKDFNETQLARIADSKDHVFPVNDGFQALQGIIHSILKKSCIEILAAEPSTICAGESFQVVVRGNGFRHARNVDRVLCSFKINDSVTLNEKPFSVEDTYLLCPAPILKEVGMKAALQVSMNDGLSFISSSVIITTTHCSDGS

B1: L2 Fab: fully human anti-TEM8 Fab from phage display; VH SEQ ID NO: 1, VL SEQ ID NO: 6; Fab chains SEQ ID NOs: 24, 25 (antibody)
heavy: QVQLKESGPALVKPTQTLTLTCTFSGFSLSTSGGGVSWIRQPPGKALEWLAHIYSNDDKSYSTSLKTRLTISKDTSKNQVVLTMTNMDPVDTATYYCARGGYFLDYWGQGTLVTVSSAKTTAPSVYPLAPVCGDTTGSSVTLGCLVKGYFPEPVTLTWNSGSLSSGVHTFPAVLQSDLYTLSSSVTVTSSTWPSQSITCNVAHPASSTKVDKKIEPRGPTIKPCPPCKCPAPNLLGGPSVFIFPPKIKDVLMISLSPIVTCVVVDVSEDDPDVQISWFVNNVEVHTAQTQTHREDYNSTLRVVSALPIQHQDWMSGKEFKCKVNNKDLPAPIERTISKPKGSVRAPQVYVLPPPEEEMTKKQVTLTCMVTDFMPEDIYVEWTNNGKTELNYKNTEPVLDSDGSYFMYSKLRVEKKNWVERNSYSCSVVHEGLHNHHTTKSFSRTPGK
light: DIELTQPPSVSVAPGQTARISCSGDNIGGIYVHWYQQKPGQAPVLVIYADSKRPSGIPERFSGSNSGNTATLTISGTQAEDEADYYCQSYDITSLVFGGGTKLTVLGQPKSTPTLTVFPPSSEELKENKATLVCLISNFSPSGVTVAWKANGTPITQGVDTSNPTKEGNKFMASSFLHLTSDQWRSHNSFTCQVTHEGDTVEKSLSPAECL
modifications: Antibody sequence
B2: L3 Fab: fully human anti-TEM8 Fab from phage display; VH SEQ ID NO: 3, VL SEQ ID NO: 8; Fab chains SEQ ID NOs: 28, 29 (antibody)
heavy: QVQLQQSGPGLVKPSQTLSLTCAISGDSVSTNGAAWGWIRQSPGRGLEWLGRIYYRSKWYNDYAVSVKSRITINPDTSKNQFSLQLNSVTPEDTAVYYCARMPGGFLFDLWGQGTLVTVSSASTKGPSVFPLAPSSKSTSGGTAALGCLVKDYFPEPVTVSWNSGALTSGVHTFPAVLQSSGLYSLSSVVTVPSSSLGTQTYICNVNHKPSNTKVDKKVEPKSEF
light: DIELTQPPSVSVAPGQTARISCSGDNIRSYYAHWYQQKPGQAPVLVIYGDSKRPSGIPERFSGSNSGNTATLTISGTQAEDEADYYCSSYASHDYVFGGGTKLTVLGQPKAAPSVTLFPPSSEELQANKATLVCLISDFYPGAVTVAWKADSSPVKAGVETTTPSKQSNNKYAASSYLSLTPEQWKSHRSYSCQVTHEGSTVEKTVAPTEA
modifications: Antibody sequence
B3: L1 Fab: fully human anti-TEM8 Fab from phage display; VH SEQ ID NO: 2, VL SEQ ID NO: 7; Fab chains SEQ ID NOs: 26, 27 (antibody)
heavy: QVQLVESGGGLVQPGGSLRLSCAASGFTFNSYAMSWVRQAPGKGLEWVSLISSGSSTYYADSVKGRFTISRDNSKNTLYLQMNSLRAEDTAVYYCARAGFKFDNWGQGTLVTVSSASTKGPSVFPLAPSSKSTSGGTAALGCLVKDYFPEPVTVSWNSGALTSGVHTFPAVLQSSGLYSLSSVVTVPSSSLGTQTYICNVNHKPSNTKVDKKVEPKSEF
light: DIELTQPPSVSVAPGQTARISCSGDSIPNYSVSWYQQKPGQAPVLVIYADSNRPSGIPERFSGSNSGNTATLTISGTQAEDEADYYCQSYDNTSPDLVFGGGTKLTVLGQPKAAPSVTLFPPSSEELQANKATLVCLISDFYPGAVTVAWKADSSPVKAGVETTTPSKQSNNKYAASSYLSLTPEQWKSHRSYSCQVTHEGSTVEKTVAPTEA
modifications: Antibody sequence
B4: 1D2 Fab: fully human anti-TEM8 Fab from phage display; VH SEQ ID NO: 5, VL SEQ ID NO: 10; Fab chains SEQ ID NOs: 32, 33 (antibody)
heavy: QVQLKESGPALVKPTQTLTLTCTFSGFSLSTSGMGVSWIRQPPGKALEWLAHINLDDDKYYSTSLKTRLTISKDTSKNQVVLTMTNMDPVDTATYYCARGGYGDMDVWGQGTLVTVSSASTKGPSVFPLAPSSKSTSGGTAALGCLVKDYFPEPVTVSWNSGALTSGVHTFPAVLQSSGLYSLSSVVTVPSSSLGTQTYICNVNHKPSNTKVDKKVEPKSEF
light: DIELTQPPSVSVAPGQTARISCSGDNIRSMFVHWYQQKPGQAPVLVIYADNKRPSGIPERFSGSNSGNTATLTISGTQAEDEADYYCSSYDYNAHLVVFGGGTKLTVLGQPKAAPSVTLFPPSSEELQANKATLVCLISDFYPGAVTVAWKADSSPVKAGVETTTPSKQSNNKYAASSYLSLTPEQWKSHRSYSCQVTHEGSTVEKTVAPTEA
modifications: Antibody sequence
B5: L5 Fab: fully human anti-TEM8 Fab from phage display; VH SEQ ID NO: 4, VL SEQ ID NO: 9; Fab chains SEQ ID NOs: 30, 31 (antibody)
heavy: QVQLVESGGGLVQPGGSLRLSCAASGFTFNSYGLSWVRQAPGKGLEWVSNISSNGSYTYYADSVKGRFTISRDNSKNTLYLQMNSLRAEDTAVYYCARAGYGLFDVWGQGTLVTVSSAKTTAPSVYPLAPVCGDTTGSSVTLGCLVKGYFPEPVTLTWNSGSLSSGVHTFPAVLQSDLYTLSSSVTVTSSTWPSQSITCNVAHPASSTKVDKKIEPRGPTIKPCPPCKCPAPNLLGGPSVFIFPPKIKDVLMISLSPIVTCVVVDVSEDDPDVQISWFVNNVEVHTAQTQTHREDYNSTLRVVSALPIQHQDWMSGKEFKCKVNNKDLPAPIERTISKPKGSVRAPQVYVLPPPEEEMTKKQVTLTCMVTDFMPEDIYVEWTNNGKTELNYKNTEPVLDSDGSYFMYSKLRVEKKNWVERNSYSCSVVHEGLHNHHTTKSFSRTPGK
light: DIELTQPPSVSVAPGQTARISCSGDKLREYYVHWYQQKPGQAPVLVIYGDNKRPSGIPERFSGSNSGNTATLTISGTQAEDEADYYCSSWAGSRSGTVFGGGTKLTVLGQPKSTPTLTVFPPSSEELKENKATLVCLISNFSPSGVTVAWKANGTPITQGVDTSNPTKEGNKFMASSFLHLTSDQWRSHNSFTCQVTHEGDTVEKSLSPAECL
modifications: Antibody sequence

biological target: T2, human TEM8 (293/Flag-hTEM8 cells) (Homo sapiens, UniProt Q9H6X2); assay: Flow cytometry / immunofluorescence binding to 293/Flag-hTEM8 cells; settings: immunofluorescence staining and flow cytometry
T2 construct: expressed in transfected cells
T2 sequence (Q9H6X2 33-564): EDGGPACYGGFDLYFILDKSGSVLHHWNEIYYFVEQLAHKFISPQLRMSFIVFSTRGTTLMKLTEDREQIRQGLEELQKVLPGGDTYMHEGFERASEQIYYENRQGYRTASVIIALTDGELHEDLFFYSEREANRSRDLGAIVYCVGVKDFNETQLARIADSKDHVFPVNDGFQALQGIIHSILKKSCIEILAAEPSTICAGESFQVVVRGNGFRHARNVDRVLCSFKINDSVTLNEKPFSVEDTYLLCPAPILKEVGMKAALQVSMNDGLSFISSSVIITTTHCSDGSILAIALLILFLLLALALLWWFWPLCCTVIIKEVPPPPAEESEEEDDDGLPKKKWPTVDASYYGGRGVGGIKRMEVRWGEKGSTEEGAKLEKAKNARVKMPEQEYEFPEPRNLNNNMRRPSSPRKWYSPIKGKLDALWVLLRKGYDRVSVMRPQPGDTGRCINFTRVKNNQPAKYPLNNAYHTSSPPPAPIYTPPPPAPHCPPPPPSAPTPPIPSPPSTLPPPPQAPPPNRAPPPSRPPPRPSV
Protocol: 293 cells were obtained from ATCC. 293 cells were cultured in DMEM supplemented with 10% FBS. 293 cells expressing mouse (293-mTEM8) or a flag-tagged human TEM8 (293/Flag-huTEM8) were generated by lipofectamine 2000 mediated stable transfection of 293 cells with a mTEM8/pcDNA3 or a Flag-huTEM8/pcDNA3 expression vector (Yang et al., Biochim Biophys Acta 1813(1):39-49, 2011).
(§1) Trypsinized cells were rinsed in cold PBS/0.5% BSA (PBS/BSA) and labeled with anti-TEM8 Fabs (human) or full IgG (human-mouse) primary antibodies in PBS/BSA containing 10% goat serum at 4° C. Cells were rinsed with PBS/BSA and incubated with FITC-conjugated goat anti-human Fab or anti-mouse IgG secondary antibodies (Jackson Immunoresearch, West Grove, Pa.), rinsed again, and analyzed on a FACScalibur flow cytometer (Becton Dickinson, Franklin Lakes, N.J.) using CellQuest™ Software.

Row | Molecule | binding to cells expressing human TEM8
1 | B1 | react
2 | B2 | react
3 | B3 | react
4 | B4 | react
5 | B5 | react

biological target: T3, mouse TEM8 (293/mTEM8 cells) (Mus musculus, UniProt Q9CZ52); assay: Flow cytometry binding to 293/mTEM8 cells; settings: not given
T3 construct: expressed in transfected cells
T3 sequence (Q9CZ52 31-562): as the sequence (Q9H6X2 33-564) above, with K40R, R104S, S241A, I297V, A327V, N458S, A468T, T471P, P493A counted along it
Protocol: 293 cells were obtained from ATCC. 293 cells were cultured in DMEM supplemented with 10% FBS. 293 cells expressing mouse (293-mTEM8) or a flag-tagged human TEM8 (293/Flag-huTEM8) were generated by lipofectamine 2000 mediated stable transfection of 293 cells with a mTEM8/pcDNA3 or a Flag-huTEM8/pcDNA3 expression vector (Yang et al., Biochim Biophys Acta 1813(1):39-49, 2011). Because transfected cells expressed variable levels of TEM8 (see 293/mTEM8 cells in FIG. 8C) they were subsequently enriched for surface expression by florescence activated cell sorting (FACS) using anti-AF344 (293/mTEM8) (Yang et al., Biochim Biophys Acta 1813(1):39-49, 2011) or anti-FLAG antibodies (293/Flag-hTEM8) (M2 clone, Sigma).
as §1

Row | Molecule | binding to cells expressing mouse TEM8
6 | B1 | react
7 | B2 | react
8 | B3 | react
9 | B4 | react
10 | B5 | react

biological target: TEM8 (CHO-TEM8 cells), binding of Anthrax PA (Homo sapiens, UniProt Q9H6X2); assay: not given; settings: not given

Row | Molecule | blocking of PA-FITC binding to CHO-TEM8 cells
11 | B1 | neutralize binding of PA to its cell surface receptor, TEM8
12 | B2 | neutralize binding of PA to its cell surface receptor, TEM8
13 | B3 | neutralize binding of PA to its cell surface receptor, TEM8
14 | B5 | neutralize binding of PA to its cell surface receptor, TEM8

test system: HCT-116 tumors; assay: not given; settings: mouse, in vivo

Row | Molecule | body weight in HCT116 tumor-bearing mice
15 | O=c1[nH]cc(F)c(=O)[nH]1 [Antibody 5-FU, 5-fluorouracil] | small, albeit non-significant, reduction in body weight
16 | CCc1c2c(nc3ccc(OC(=O)N4CCC(N5CCCCC5)CC4)cc13)-c1cc3c(c(=O)n1C2)COC(=O)[C@]3(O)CC [IRT, irinotecan] | small, albeit non-significant, reduction in body weight

biological target: T1, purified recombinant hTEM8(ED)-Fc fusion protein; assay: ELISA of Fabs on TEM8(ED)-Fc; settings: not given

Row | Molecule | reactivity with TEM8 protein in ELISA
17 | B1 | react
18 | B2 | react
19 | B3 | react
20 | B4 | react
21 | B5 | react

From US9181340B2, “TEM8 antibodies, conjugates thereof, and their use” (The United States of America, as represented by the …, priority 2011, dated 2015)
